The text below walks through data of patent US20200024330A1.

What all share (experiment): cell-based or functional assay
Assay [1] concerns the target HIV-1 Env of isolate AC10 (HIV-1).
The target in assay [2] is HIV-1 Env of isolate THRO.18 (HIV-1).
For assay [3], the target named is HIV-1 92BR020 Env (clade B pseudovirus) (HIV-1).
Assay [4] deals with HIV-1 92UG005 Env (clade D pseudovirus) (HIV-1).
The target in assay [5] is HIV-1 93IN905 Env (clade C pseudovirus) (HIV-1).
Assay [6] concerns the target HIV-1 93UG077 Env (clade A pseudovirus) (HIV-1).
The target of assay [7] is HIV-1 94UG103 Env (clade A pseudovirus) (HIV-1).
Assay [8] has as its target HIV-1 APV6 Env (clade B pseudovirus) (HIV-1).
Assay [9] addresses HIV-1 JRFL Env (clade B pseudovirus) (HIV-1).
The target of assay [10] is HIV-1 MGRM-A-010 Env (clade A pseudovirus) (HIV-1).
For assay [11], the target named is HIV-1 MGRM-AG-005 Env (clade AG pseudovirus) (HIV-1).
Assay [12] has as its target HIV-1 MGRM-C-028 Env (clade C pseudovirus) (HIV-1).
In assay [13] the target is HIV-1 MGRM-D-018 Env (clade D pseudovirus) (HIV-1).
For assay [14], the target named is HIV-1 92TH021 Env (pseudovirus) (HIV-1).
Assay [15] deals with HIV-1 Env of isolate 92RW020 (clade A) (HIV-1).
The target in assay [16] is HIV-1 Env of isolate 92TH021 (clade AE) (HIV-1).
Assay [17] has as its target HIV-1 Env of isolate 93IN905 (clade C) (HIV-1).
Assay [18] addresses HIV-1 Env of isolate 94UG103 (clade A) (HIV-1).
In assay [19] the target is HIV-1 Env of isolate JRCSF (clade B) (HIV-1) (UniProt P20871).
Assay [20] has as its target HIV-1 Env of isolate MGRM-A-010 (clade A) (HIV-1).
Assay [21] deals with aMLV envelope (negative control pseudovirus) (aMLV).
In assay [22] the target is HIV-1 JR-CSF Env K305A (HIV-1 JR-CSF) (UniProt P20871).
The target of assay [23] is HIV-1 Env of isolate MGRM-F1-022 (clade F), on pseudovirus (HIV-1).
The target of assay [24] is HIV-1 Env of isolate SF162 (subtype B) (HIV-1) (UniProt P19550).
Assay [25] deals with HIV-1 envelope glycoprotein (Env) of isolate MGRM-Chronic-B-001, on pseudovirus (HIV-1).
In assay [26] the target is HIV-1 envelope glycoprotein (Env) of isolate MGRM-Chronic-B-011, on pseudovirus (HIV-1).
For assay [27], the target named is HIV-1 Env of isolate 98CN006 (subtype CRF08 BC), on pseudovirus (HIV-1).
Assay [28] deals with HIV-1 Env of isolate MG RM-A-007 (pseudovirus) (HIV-1).
Assay [29] concerns the target HIV-1 Env of isolate MGRM-AE-003 (pseudovirus) (HIV-1).
In assay [30] the target is HIV-1 Env of isolate MGRM-D-001 (subtype D), on pseudovirus (HIV-1).
Assay [31] addresses HIV-1 Env of isolate MGRM-D-003 (subtype D), on pseudovirus (HIV-1).
The target in assay [32] is HIV-1 Env of isolate VLGCA1 (pseudovirus) (HIV-1).

Chain of 1443_C16 (PG16) (TCN-116) (antibody) (VH): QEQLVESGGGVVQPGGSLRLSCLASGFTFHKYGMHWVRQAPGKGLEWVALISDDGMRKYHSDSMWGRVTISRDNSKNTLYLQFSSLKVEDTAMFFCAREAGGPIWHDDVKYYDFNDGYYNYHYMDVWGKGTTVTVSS
Chain of 1443_C16 (PG16) (TCN-116) (antibody) (VL): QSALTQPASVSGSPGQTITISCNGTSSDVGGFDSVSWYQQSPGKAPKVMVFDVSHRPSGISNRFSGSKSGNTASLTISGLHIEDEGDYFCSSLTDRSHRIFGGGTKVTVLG

With 1443_C16 (PG16) (TCN-116) (antibody), the IC50, pseudovirus neutralization (TZM-bl) is less than 0.01 µg/mL in [1] and 2.19 µg/mL in assay [2].

Take 4877_D15 (PGT-122) (antibody): the Neutralization by PGT-122, IC50 in assay [3] was 0.0337 µg/mL; in [4], more than 10 µg/mL; in [5] it was 0.0138 µg/mL; in assay [6] it was 0.191 µg/mL; in assay [7] it was 1.46 µg/mL; in assay [8], 0.0851 µg/mL. For the same substance, the Neutralization by PGT-122, IC50 in assay [9] is 0.0471 µg/mL; in assay [10] it was 1.68 µg/mL; in assay [11], more than 10 µg/mL; in assay [12] it was 2.06 µg/mL; in assay [13], 0.0115 µg/mL. Besides, the Neutralization by PGT-122, IC80 in assay [3] was 0.0929 µg/mL; in [4], more than 10 µg/mL; in assay [5], 0.0505 µg/mL; in assay [6], 0.931 µg/mL; in [7], 6.58 µg/mL; in assay [8] it was 0.351 µg/mL. The Neutralization by PGT-122, IC80 in assay [9] is 0.166 µg/mL; in assay [10], more than 10 µg/mL; in assay [11], more than 10 µg/mL; in [12], more than 10 µg/mL; in [13], 0.035 µg/mL. The Neutralization by PGT-122, IC90 in assay [3] was 0.168 µg/mL; in assay [4], more than 10 µg/mL; in [5], 0.108 µg/mL; in assay [6], 2.1 µg/mL; in assay [7], more than 10 µg/mL; in assay [8] it was 0.779 µg/mL. Besides, the Neutralization by PGT-122, IC90 in [9] is 0.342 µg/mL; in [10], more than 10 µg/mL; in assay [11], more than 10 µg/mL; in [12], more than 10 µg/mL; in assay [13], 0.0674 µg/mL. In addition, the Neutralization by PGT-122, IC95 was 0.289 µg/mL in [3]; more than 10 µg/mL in assay [4]; 0.217 µg/mL in [5]; 3.88 µg/mL in [6]; more than 10 µg/mL in assay [7]; 1.55 µg/mL in [8]. In addition, the Neutralization by PGT-122, IC95 is 0.659 µg/mL in [9]; more than 10 µg/mL in [10]; more than 10 µg/mL in [11]; more than 10 µg/mL in [12]; 0.125 µg/mL in assay [13].

In the case of 5141_B17 (PGT-126) (antibody), in [14], the IC50 worked out at 0.115 µg/mL, the IC80 was found to be 1.62 µg/mL, the IC90 came to 6.91 µg/mL and the IC95 is more than 10 µg/mL.

5147_N06 (PGT-130) (antibody): the neutralization IC50 in [15] turned out to be 0.014 µg/mL; in assay [16] it was 0.0082 µg/mL; in assay [17], 0.0182 µg/mL; in assay [18], 0.635 µg/mL; in assay [19] it was 0.0089 µg/mL; in assay [20], 0.0054 µg/mL. This substance displayed a neutralization IC50 in assay [21] of more than 10 µg/mL. Also, the neutralization IC80 was 0.508 µg/mL in assay [15]; 0.0261 µg/mL in assay [16]; 0.272 µg/mL in [17]; more than 10 µg/mL in assay [18]; 0.0317 µg/mL in assay [19]; 0.0251 µg/mL in assay [20]. The substance also registered a neutralization IC80 in assay [21] of more than 10 µg/mL. In addition, the neutralization IC90 in [15] is 3.68 µg/mL; in assay [16], 0.0513 µg/mL; in assay [17], 1.31 µg/mL; in assay [18], more than 10 µg/mL; in [19], 0.0669 µg/mL; in assay [20], 0.0643 µg/mL. In addition, in assay [21], the neutralization IC90 was more than 10 µg/mL. Also, the neutralization IC95 in assay [15] is more than 10 µg/mL; in assay [16], 0.0963 µg/mL; in [17] it was 5.48 µg/mL; in assay [18], more than 10 µg/mL; in assay [19] it was 0.134 µg/mL; in [20], 0.164 µg/mL. The substance further came in with a neutralization IC95 in assay [21] of more than 10 µg/mL.

Consider PGT-121 (antibody), for which, in [22], the Fold IC50 increase relative to wild-type is 1.9 fold.

For the substance PGV04 (antibody), the IC50 (µg/mL), single-round pseudovirus neutralization in assay [23] was found to be 0.072 µg/mL. This substance also had an IC50 (µg/mL), pseudovirus neutralization in assay [24] of 0.0028 µg/mL. Further, the results for the IC50, pseudovirus neutralization in assay [25] and in assay [26] were 0.048 µg/mL and 0.497 µg/mL, respectively.

Turning to VRC01 (antibody), the figures for the IC50, pseudovirus neutralization in assay [27], in [30] and in assay [31] were 0.644 µg/mL, more than 50 µg/mL and 2.06 µg/mL, respectively. Besides, the IC50 (µg/mL), pseudovirus neutralization worked out at 12.6 µg/mL in assay [28], 0.685 µg/mL in assay [29] and 0.163 µg/mL in assay [32].

By IC50 is commonly meant the midpoint of a concentration-inhibition curve. The low end stands for greater potency, the high end for weaker potency. By IC80 is commonly meant the point of the concentration-response curve where the effect stands at 80%. A word on the IC90: it is the point of the concentration-response curve where the effect stands at 90%. As a reminder, the IC95 is the concentration needed for an effect of 95%. A lower IC95 goes with an effect from little substance.
